Measurements taken from the supplement of paper PMC9170038.

System: MS2 coat protein
Assay: apparent KD of MS2 coat protein; designed switch direction (-1 OFF switch, 1 ON switch): -1; higher = weaker reporter binding
Summary of the method: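 Three titration conditions were used: no input, 200 uM small-molecule ligand, and an oligonucleotide input. In each, SNAP-549-labelled MS2 coat protein was raised from 0.7 or 1.5 nM, doubling, to 3 µM over designed RNA switches transcribed on Illumina chips by stalled E. coli RNA polymerase. Curve fits of normalised cluster fluorescence gave values whose per-design median over clusters is the apparent KD.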

[1] = Eterna round: R95, input ligand: microRNA oligo, concentration not stated
[2] = input ligand: microRNA oligo, concentration not stated
[3] = Eterna round: R95, input ligand: FMN 200 uM
[4] = Eterna round: R95, input ligand: none

Sequence	apparent KD of MS2 coat protein [1] [nM]	apparent KD of MS2 coat protein (input ligand: FMN 200 uM) [nM]	apparent KD of MS2 coat protein (input ligand: none) [nM]	apparent KD of MS2 coat protein [2] [nM]	apparent KD of MS2 coat protein [3] [nM]	apparent KD of MS2 coat protein [4] [nM]
AUUGUAGUUGUGAGGAUAUCGUUGAUUUUUUGAAACGAGAAGGCACAUGAGGAUCACCCAUGUAAGUUGUAGGU [JR_BMOE4_Sub055] (puzzle: Brourd's mod of Exclusion 4)	77.6					
UCUUCAGCCAAGUUCACAUACAUGAGGAUCACCCAUGUUGCGUAACGCAUGCAUAUCCUAGUUGCUCGUUCUACAGU [Eternabot (L1) Solution 6] (Eterna round: R97, puzzle: Sensor, turn-off variant 1)		26.4	33.1			
AGUCGUAGACAGGAUAUGCGGCUAAUAAAUAAAGCAGAAGGGUCUACUUGAGGAUCACCCAAGUGGGCGGUCAA [jl-ex6-4.21 ViennaUCT mod] (Eterna round: R97, puzzle: Exclusion 6)		186	51.8			
UAAACAUGGAUAUAACAGUACAUGAGGAUCACCCAUGUUAAUACGAUAGAUUAUAACAAGCUUUUUUGUCGUCUUAA [Cooked Book] (Eterna round: R97, puzzle: Sensor, turn-off variant 1)		116	85.4			
AAUGCCGGUGUCAGGAUAUCCGGAGGGAAACCUCCGGAGAAGGGACAUGAGGAUCACCCAUGUAUGUAACCUGC [AK-MS2ROC-r4-Bmoexclusion4-6] (Eterna round: R97, puzzle: Brourd's mod of Exclusion 4)		24.9	22.2			
CUUAUGUGAGGAUAUGGUGUUGGCCACAGGAAAAAGAUCCUCCAGAAGGCACAUGAGGAUCACCCAUGUAGUGA [Jolly's Folly 30 - Jieux - Exclusion 4] (Eterna round: R96, puzzle: Exclusion 4)		220	57.2	54.5		
GAUUAUGCGAGCUUUAGGGACAUGAGGAUCACCCAUGUUCGUCUUAUUGGUCUGAAUGCACUAACAUACCUAAAUCU [JMF 24] (puzzle: Sensor v3, turn-off variant 1)	37				26.2	24.8
CUAGAUCUUCGGAUCUAGUACAUGAGGAUCACCCAUGUGACGAGUUUAUGGGUGAACAAGCUUUUUGCUCGUCUUAU [Sensor v3 - Turn-off variant 1 - 7] (puzzle: Sensor v3, turn-off variant 1)	16.5				71.4	84.8
CAACAACGAGGAUAUACAUGAGGAUCACCCAUGUAAGAAAAGACAUAAACCGCCUGGUGUAGAAGGCGUAAAAC [Xeonesar] (Eterna round: R97, puzzle: Exclusion 3)		25.2	38.2			
AACAAGUCAGGAUAUGCCCUGAUAGACUUGAGGAUCACCCAAGUAAGUCUAUCUGGCUAAGCAGAAGGGACAAAAG [Usrabe] (Eterna round: R97, puzzle: Exclusion 5)		643	649			
UGUUGUUACGCAGGAUAUGAGGAUCACCCAUAUUAGGAUAUCGAAAGAGAAGUUCUGAGGAUCACCCAGAAGGGCGGGUUAACA [pwkr exNG2 2xF5 2xFMN.35] (Eterna round: R96, puzzle: Exclusion NG 2)		117	53.2	37.8		
ACAUGAGGAUCACCCAUGUUUGGCUGGUUUUCUCCGGCUGUCGAGGAUAUAGUACGGUAUCCGCGCUAGAAGGUGAGGGCCGGC [Aenatbe mod 1] (Eterna round: R96, puzzle: Exclusion NG 3)		15.5	15.8	14.3		
GAAUAGGUAGGAUAUACGAAAAAAAAGGGUAGAAAAAAAACACAUGAGGAUCACCCAUGUAGAAGGACCAAAAG [salish99_ex2_r3_089] (puzzle: Exclusion 2)	31.6				68.6	29.6
UUUAAUUUUUUUUUUUUACAAGCUUUUUGCUCGUCUUAUACAUGAGGAUCACCCAUGUGAAUGGAAGAUAAAUUAUC [JMF 8] (puzzle: Sensor v3, turn-off variant 2)	16.3				17.8	18.6
UAUUAGCAAGUAAGGUCCCACAUGAGGAUCACCCAUGUGCUCGUCUUAUAAGGUACUGUGACGAAAGUCACGGUACC [Sensor 3, v1 - 95] (puzzle: Sensor v3, turn-off variant 1)	585				18.4	18.1
GUCAGCUCGUCAGGAUAUACAUGCGUGCUUCGGCACGUAUGAUAGAUCACAUGAGGAUCACCCAUGUAGAAGGGACGAGCUGAU [ENG2/4-B2] (Eterna round: R96, puzzle: Exclusion NG 2)		16.6	14.4	10		
AGGUCAUUAGGAUAUGUCGAAUAUGACAUGAGGAUCACCCAUGUGGUAGGCAUGUCGUAGACAGAAGGAGUGUAAA [Laqureis] (Eterna round: R97, puzzle: Exclusion 5)		219	75.9			

Sequence	apparent KD of MS2 coat protein [1] [nM]	apparent KD of MS2 coat protein (input ligand: FMN 200 uM) [nM]	apparent KD of MS2 coat protein (input ligand: none) [nM]	apparent KD of MS2 coat protein [2] [nM]	apparent KD of MS2 coat protein [3] [nM]	apparent KD of MS2 coat protein [4] [nM]
GAUUAUGCAGGCUUUAGGGACAUGAGGAUCACCCAUGUUCGUCUUAUUGAUCUAGGUACGCUGACGUACCUAGAUCU [JL-sv1-2.34 Brourd mod] (puzzle: Sensor v3, turn-off variant 1)	42.5				19.3	20.4
AGUACUAACACGAGAGUGUUAGUACUAUAAGCUUGUGUUACAUGAGGAUCACCCAUGUCCUCAUAAGCUCGUCUUAU [Mat - Sensor v3 - Turn-off var 2 - D79] (puzzle: Sensor v3, turn-off variant 2)	40.5				124	116
GUGGUACAUGAGGAUCACCCAUGUUAGGAUAUCGCGUGAGGUUUUACUUACACACACACGAGAAGGGACGUCUU (puzzle: Exclusion 1)	43.2					
UACAUGAGGAUCACCCAUGUUUUGUCGUGUAUGGUAAUAAUCUAGGAUAUCAAUUUAUUUAUUUAUGAGAAGGAGAAUAAUAAA [JMF's solution 4] (Eterna round: R96, puzzle: Exclusion NG 3)		67.1	61.7	55.9		
GGUGUCGUCAGAAGACAUGAGGAUCACCCAUGUAAAUGCACUGAGGAUAUACGGGCGACCGGCGUGUAGAAGGUAGAGCACGAA [Ladivequ] (Eterna round: R96, puzzle: Exclusion NG 3)		43	41.6	24.5		
CUGGACCCGGUAGGAUAUAUUGUGGGCGGGCGUGGAACGACAUGAGGAUCACCCAUGUGAUUGAGGUAGAAGGGCCGAGAGGUC [Excl-NG2-LRO19] (Eterna round: R96, puzzle: Exclusion NG 2)		43.2	42.9	31.2		
GGUGAGCUAGGAUAUGCUUUGGGCACGCAUUCCUUCGAUAAACUUGAGGAUCACCCAAGUAGAAGGAGCUUGCC [salish99_ex2_r4_030] (Eterna round: R97, puzzle: Exclusion 2)		18.1	12.9			
UUGAAAGGUGUAGGAUAUGUAUGAGGAUCACCCAUUAAUAAAUUUUAACCACGAGGAUCACCCGUGUAGAAGGACACCUUUCAA [pwkr exNG2 2xF5 1xFMN.18] (Eterna round: R96, puzzle: Exclusion NG 2)		36.9	31.8	18		
CCGCAACAUGAGGAUCACCCAUGUCAGGAUAUCGUACGUUCGUCGAUAGACGAUCGUACGAGAAGGGUGUGCGG [Mat - Exclusion 1 - Eli Mod - D35] (Eterna round: R97, puzzle: Exclusion 1)		81.5	103			
CCGUUGGUAGGAUAUCCAACGAUAUACUUGAGGAUCACCCAAGUCCGUAGGGCGUUCGAAGGAGAAGGGCUGAUGG [Zaisaat] (Eterna round: R97, puzzle: Exclusion 5)		120	108			
GUCACAUGGACAUAGGAUCACAUGAGGAUCACCCAUGUGACUAACAAGCUUUUUGCUCGUCUUAUGUCUAUGUGAAU [Stov1/16-A2] (Eterna round: R97, puzzle: Sensor, turn-off variant 1)		14	14.3			
GAUCCGUUAGGAUAUCGUGAGGACAGCUAGUCUUAUUAACACGAGAAGGAACAUGAGGAUCACCCAUGUGGUAA [Eternabot (L1) Solution 14] (Eterna round: R97, puzzle: Exclusion 4)		279	62.3			
CGUCUGUGAGGAUAUGGUAUCGUUUACAUGAGGAUCACCCAUGUUACAUGGGACUAGAGACUAGAAGGUACGAACG [EX5 #49] (Eterna round: R97, puzzle: Exclusion 5)		212	320			
UUUAAUUUUUUUUUUUUACAAGCUUUUUGCUCGUCUUAUACAUGAGGAUCACCCAUGUAAAUGGAGGAUAAAUUAUC [JMF 29] (puzzle: Sensor v3, turn-off variant 2)	41.1				22.4	19.7
AGUAACUAUCACGAAAGUGAUAGUUACAACAAGUGAUAAACAUGAGGAUCACCCAUGUCCUCAUUUGCUCGUCUUAU [Sensor 3 - 9] (puzzle: Sensor v3, turn-off variant 2)	283				256	326
AUCCUUAACAAGGAUAUCGGGCGGGAAAUUGUUUGAGAAGGUGUAACAUGAGGAUCACCCAUGUAAAAUAUGAA [-14.9, -13.5 kcal, A 36%] (Eterna round: R97, puzzle: Exclusion 6)		21.7	31.2			
